Test results from patent publication US20250361312A1 (INVOX PHARMA, published 2025).

What was measured:
Assay in all cases: SPR (Biacore T200), receptor on CM5 chip
human TNFRI = biological target: T1, human TNFRI (human, UniProt P19438 30-211, limits assumed)
T1 construct: Amine-coupled to a CM5 chip
T1 sequence (looked up): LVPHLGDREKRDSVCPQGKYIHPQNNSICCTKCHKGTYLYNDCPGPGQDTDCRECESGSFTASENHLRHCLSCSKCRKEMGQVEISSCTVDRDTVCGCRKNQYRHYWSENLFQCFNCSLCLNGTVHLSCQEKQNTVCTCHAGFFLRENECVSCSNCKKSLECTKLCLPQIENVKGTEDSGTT

human TNFRII = biological target: T2, human TNFRII (human, UniProt P20333 23-257, limits assumed)
T2 construct: Amine-coupled to a CM5 chip
T2 sequence (looked up): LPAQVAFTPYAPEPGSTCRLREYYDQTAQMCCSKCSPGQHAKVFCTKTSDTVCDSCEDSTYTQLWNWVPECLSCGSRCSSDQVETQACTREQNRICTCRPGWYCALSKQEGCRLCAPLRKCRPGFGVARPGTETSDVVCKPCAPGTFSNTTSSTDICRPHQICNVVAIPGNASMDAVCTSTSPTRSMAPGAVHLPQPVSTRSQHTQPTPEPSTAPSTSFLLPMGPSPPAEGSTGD

human NGFR = biological target: T3, human NGFR (human, UniProt P08138 29-250, limits assumed)
T3 construct: Amine-coupled to a CM5 chip
T3 sequence (looked up): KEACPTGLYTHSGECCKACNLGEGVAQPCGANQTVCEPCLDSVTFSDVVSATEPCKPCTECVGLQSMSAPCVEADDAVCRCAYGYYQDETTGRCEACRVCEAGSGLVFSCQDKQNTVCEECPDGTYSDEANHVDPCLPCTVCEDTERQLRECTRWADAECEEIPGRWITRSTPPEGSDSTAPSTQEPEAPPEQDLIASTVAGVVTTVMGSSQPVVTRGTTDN

human CD137 = biological target: T4, human CD137 (human, UniProt Q07011 24-186, limits assumed)
T4 construct: Amine-coupled to a CM5 chip; also called 4-1BB

human CD40 = biological target: T5, human CD40 (human, UniProt P25942 21-193, limits assumed)
T5 construct: Amine-coupled to a CM5 chip
T5 sequence (P25942 21-193 limits assumed): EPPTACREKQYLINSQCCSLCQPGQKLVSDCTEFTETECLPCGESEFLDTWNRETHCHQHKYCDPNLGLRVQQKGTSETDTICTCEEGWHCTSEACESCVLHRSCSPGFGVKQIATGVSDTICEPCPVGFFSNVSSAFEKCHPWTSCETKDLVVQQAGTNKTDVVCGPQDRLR

Measured: binding result

B1: FS20-11-134AA/4420 (bispecific antibody, human IgG1, kappa, L234A L235A)
heavy: EVKLDETGGGLVQPGRPMKLSCVASGFTFSDYWMNWVRQSPEKGLEWVAQIRNKPYNYETYYSDSVKGRFTISRDDSKSSVYLQMNNLRVEDMGIYYCTGSYYGMDYWGQGTSVTVSSASTKGPSVFPLAPSSKSTSGGTAALGCLVKDYFPEPVTVSWNSGALTSGVHTFPAVLQSSGLYSLSSVVTVPSSSLGTQTYICNVNHKPSNTKVDKKVEPKSCDKTHTCPPCPAPEAAGGPSVFLFPPKPKDTLMISRTPEVTCVVVDVSHEDPEVKFNWYVDGVEVHNAKTKPREEQYNSTYRVVSVLTVLHQDWLNGKEYKCKVSNKALPAPIEKTISKAKGQPREPQVYTLPPSREEDDNDVSLTCLVKGFYPSDIAVEWESNGIPIGPYKTTPPVLDSDGSFFLYSKLTVDKSRWWKHYVEEHPFLCSVMHEALHNHYTQKSLSLSPG
light: DVVMTQTPLSLPVSLGDQASISCRSSQSLVHSNGNTYLRWYLQKPGQSPKVLIYKVSNRFSGVPDRFSGSGSGTDFTLKISRVEAEDLGVYFCSQSTHVPWTFGGGTKLEIKRTVAAPSVFIFPPSDEQLKSGTASVVCLLNNFYPREAKVQWKVDNALQSGNSQESVTEQDSKDSTYSLSSTLTLSKADYEKHKVYACEVTHQGLSSPVTKSFNRGEC
notes: Human IgG1 with anti-FITC 4420 Fab and LALA; The OX40 site is in the CH3 domain; also called FS20-11-134 Fcab in mock (4420 LALA) mAb^2 format
no binding (tested: 1 µM): all assays above

B2: FS20-22-41AA/4420 (bispecific antibody, human IgG1, kappa, L234A L235A)
heavy: EVKLDETGGGLVQPGRPMKLSCVASGFTFSDYWMNWVRQSPEKGLEWVAQIRNKPYNYETYYSDSVKGRFTISRDDSKSSVYLQMNNLRVEDMGIYYCTGSYYGMDYWGQGTSVTVSSASTKGPSVFPLAPSSKSTSGGTAALGCLVKDYFPEPVTVSWNSGALTSGVHTFPAVLQSSGLYSLSSVVTVPSSSLGTQTYICNVNHKPSNTKVDKKVEPKSCDKTHTCPPCPAPEAAGGPSVFLFPPKPKDTLMISRTPEVTCVVVDVSHEDPEVKFNWYVDGVEVHNAKTKPREEQYNSTYRVVSVLTVLHQDWLNGKEYKCKVSNKALPAPIEKTISKAKGQPREPQVYTLPPSRDEYWDQEVSLTCLVKGFYPSDIAVEWESNGDEQFAYKTTPPVLDSDGSFFLYSKLTVDQYRWNPGDYFSCSVMHEALHNHYTQKSLSLSPG
light: DVVMTQTPLSLPVSLGDQASISCRSSQSLVHSNGNTYLRWYLQKPGQSPKVLIYKVSNRFSGVPDRFSGSGSGTDFTLKISRVEAEDLGVYFCSQSTHVPWTFGGGTKLEIKRTVAAPSVFIFPPSDEQLKSGTASVVCLLNNFYPREAKVQWKVDNALQSGNSQESVTEQDSKDSTYSLSSTLTLSKADYEKHKVYACEVTHQGLSSPVTKSFNRGEC
notes: Human IgG1 with anti-FITC 4420 Fab and LALA; The OX40 site is in the CH3 domain; also called FS20-22-41 Fcab in mock (4420 LALA) mAb^2 format
no binding (tested: 1 µM): all assays above

B3: FS20-11-131AA/4420 (bispecific antibody, human IgG1, kappa, L234A L235A)
heavy: EVKLDETGGGLVQPGRPMKLSCVASGFTFSDYWMNWVRQSPEKGLEWVAQIRNKPYNYETYYSDSVKGRFTISRDDSKSSVYLQMNNLRVEDMGIYYCTGSYYGMDYWGQGTSVTVSSASTKGPSVFPLAPSSKSTSGGTAALGCLVKDYFPEPVTVSWNSGALTSGVHTFPAVLQSSGLYSLSSVVTVPSSSLGTQTYICNVNHKPSNTKVDKKVEPKSCDKTHTCPPCPAPEAAGGPSVFLFPPKPKDTLMISRTPEVTCVVVDVSHEDPEVKFNWYVDGVEVHNAKTKPREEQYNSTYRVVSVLTVLHQDWLNGKEYKCKVSNKALPAPIEKTISKAKGQPREPQVYTLPPSREEDDNDVSLTCLVKGFYPSDIAVEWESNGIPIGPYKTTPPVLDSDGSFFLYSKLTVDKNRWWKHYVDEHPFLCSVMHEALHNHYTQKSLSLSPG
light: DVVMTQTPLSLPVSLGDQASISCRSSQSLVHSNGNTYLRWYLQKPGQSPKVLIYKVSNRFSGVPDRFSGSGSGTDFTLKISRVEAEDLGVYFCSQSTHVPWTFGGGTKLEIKRTVAAPSVFIFPPSDEQLKSGTASVVCLLNNFYPREAKVQWKVDNALQSGNSQESVTEQDSKDSTYSLSSTLTLSKADYEKHKVYACEVTHQGLSSPVTKSFNRGEC
notes: Human IgG1 with anti-FITC 4420 Fab and LALA; The OX40 site is in the CH3 domain; also called FS20-11-131 Fcab in mock (4420 LALA) mAb^2 format
no binding (tested: 1 µM): all assays above

B4: FS20-22-38AA/4420 (bispecific antibody, human IgG1, kappa, L234A L235A)
heavy: EVKLDETGGGLVQPGRPMKLSCVASGFTFSDYWMNWVRQSPEKGLEWVAQIRNKPYNYETYYSDSVKGRFTISRDDSKSSVYLQMNNLRVEDMGIYYCTGSYYGMDYWGQGTSVTVSSASTKGPSVFPLAPSSKSTSGGTAALGCLVKDYFPEPVTVSWNSGALTSGVHTFPAVLQSSGLYSLSSVVTVPSSSLGTQTYICNVNHKPSNTKVDKKVEPKSCDKTHTCPPCPAPEAAGGPSVFLFPPKPKDTLMISRTPEVTCVVVDVSHEDPEVKFNWYVDGVEVHNAKTKPREEQYNSTYRVVSVLTVLHQDWLNGKEYKCKVSNKALPAPIEKTISKAKGQPREPQVYTLPPSRDEYWDQEVSLTCLVKGFYPSDIAVEWESNGAEKYQYKTTPPVLDSDGSFFLYSKLTVDQYRWNPGDYFSCSVMHEALHNHYTQKSLSLSPG
light: DVVMTQTPLSLPVSLGDQASISCRSSQSLVHSNGNTYLRWYLQKPGQSPKVLIYKVSNRFSGVPDRFSGSGSGTDFTLKISRVEAEDLGVYFCSQSTHVPWTFGGGTKLEIKRTVAAPSVFIFPPSDEQLKSGTASVVCLLNNFYPREAKVQWKVDNALQSGNSQESVTEQDSKDSTYSLSSTLTLSKADYEKHKVYACEVTHQGLSSPVTKSFNRGEC
notes: Human IgG1 with anti-FITC 4420 Fab and LALA; The OX40 site is in the CH3 domain; also called FS20-22-38 Fcab in mock (4420 LALA) mAb^2 format
no binding (tested: 1 µM): all assays above

B5: FS20-11-127AA/4420 (bispecific antibody, human IgG1, kappa, L234A L235A)
heavy: EVKLDETGGGLVQPGRPMKLSCVASGFTFSDYWMNWVRQSPEKGLEWVAQIRNKPYNYETYYSDSVKGRFTISRDDSKSSVYLQMNNLRVEDMGIYYCTGSYYGMDYWGQGTSVTVSSASTKGPSVFPLAPSSKSTSGGTAALGCLVKDYFPEPVTVSWNSGALTSGVHTFPAVLQSSGLYSLSSVVTVPSSSLGTQTYICNVNHKPSNTKVDKKVEPKSCDKTHTCPPCPAPEAAGGPSVFLFPPKPKDTLMISRTPEVTCVVVDVSHEDPEVKFNWYVDGVEVHNAKTKPREEQYNSTYRVVSVLTVLHQDWLNGKEYKCKVSNKALPAPIEKTISKAKGQPREPQVYTLPPSREEDDNDVSLTCLVKGFYPSDIAVEWESNGIPIGPYKTTPPVLDSDGSFFLYSKLTVDKSRWWRHYVEEHPFLCSVMHEALHNHYTQKSLSLSPG
light: DVVMTQTPLSLPVSLGDQASISCRSSQSLVHSNGNTYLRWYLQKPGQSPKVLIYKVSNRFSGVPDRFSGSGSGTDFTLKISRVEAEDLGVYFCSQSTHVPWTFGGGTKLEIKRTVAAPSVFIFPPSDEQLKSGTASVVCLLNNFYPREAKVQWKVDNALQSGNSQESVTEQDSKDSTYSLSSTLTLSKADYEKHKVYACEVTHQGLSSPVTKSFNRGEC
notes: Human IgG1 with anti-FITC 4420 Fab and LALA; The OX40 site is in the CH3 domain
no binding (tested: 1 µM): all assays above

B6: FS20-22-47AA/4420 (bispecific antibody, human IgG1, kappa, L234A L235A)
heavy: EVKLDETGGGLVQPGRPMKLSCVASGFTFSDYWMNWVRQSPEKGLEWVAQIRNKPYNYETYYSDSVKGRFTISRDDSKSSVYLQMNNLRVEDMGIYYCTGSYYGMDYWGQGTSVTVSSASTKGPSVFPLAPSSKSTSGGTAALGCLVKDYFPEPVTVSWNSGALTSGVHTFPAVLQSSGLYSLSSVVTVPSSSLGTQTYICNVNHKPSNTKVDKKVEPKSCDKTHTCPPCPAPEAAGGPSVFLFPPKPKDTLMISRTPEVTCVVVDVSHEDPEVKFNWYVDGVEVHNAKTKPREEQYNSTYRVVSVLTVLHQDWLNGKEYKCKVSNKALPAPIEKTISKAKGQPREPQVYTLPPSRDEYWDQEVSLTCLVKGFYPSDIAVEWESNGDEQFAYKTTPPVLDSDGSFFLYSKLTVDQYRWSPGDYFSCSVMHEALHNHYTQKSLSLSPG
light: DVVMTQTPLSLPVSLGDQASISCRSSQSLVHSNGNTYLRWYLQKPGQSPKVLIYKVSNRFSGVPDRFSGSGSGTDFTLKISRVEAEDLGVYFCSQSTHVPWTFGGGTKLEIKRTVAAPSVFIFPPSDEQLKSGTASVVCLLNNFYPREAKVQWKVDNALQSGNSQESVTEQDSKDSTYSLSSTLTLSKADYEKHKVYACEVTHQGLSSPVTKSFNRGEC
notes: Human IgG1 with anti-FITC 4420 Fab and LALA; The OX40 site is in the CH3 domain; also called FS20-22-47 Fcab in mock (4420 LALA) mAb^2 format
no binding (tested: 1 µM): all assays above
